How the values were obtained:
EPHB2 = EPHB2 (UniProt P29323); assay: phosphorylation enrichment, bacterial display (enrichment ratio); higher = better substrate or ligand; peptides without Tyr show the background
Fer (mouse) = assay: as above
Fyn = Fyn (UniProt P06241); assay: as above
Jak2 = Jak2 (UniProt O60674); assay: as above
FGFR3 = FGFR3 (UniProt P22607); assay: as above
MERTK = MERTK (UniProt Q12866); assay: as above
Hck = Hck (UniProt P08631); assay: as above
c-Src = assay: as above
Fes = Fes (UniProt P07332); assay: as above
Sequence of Fes (P07332 whole entry, looked up): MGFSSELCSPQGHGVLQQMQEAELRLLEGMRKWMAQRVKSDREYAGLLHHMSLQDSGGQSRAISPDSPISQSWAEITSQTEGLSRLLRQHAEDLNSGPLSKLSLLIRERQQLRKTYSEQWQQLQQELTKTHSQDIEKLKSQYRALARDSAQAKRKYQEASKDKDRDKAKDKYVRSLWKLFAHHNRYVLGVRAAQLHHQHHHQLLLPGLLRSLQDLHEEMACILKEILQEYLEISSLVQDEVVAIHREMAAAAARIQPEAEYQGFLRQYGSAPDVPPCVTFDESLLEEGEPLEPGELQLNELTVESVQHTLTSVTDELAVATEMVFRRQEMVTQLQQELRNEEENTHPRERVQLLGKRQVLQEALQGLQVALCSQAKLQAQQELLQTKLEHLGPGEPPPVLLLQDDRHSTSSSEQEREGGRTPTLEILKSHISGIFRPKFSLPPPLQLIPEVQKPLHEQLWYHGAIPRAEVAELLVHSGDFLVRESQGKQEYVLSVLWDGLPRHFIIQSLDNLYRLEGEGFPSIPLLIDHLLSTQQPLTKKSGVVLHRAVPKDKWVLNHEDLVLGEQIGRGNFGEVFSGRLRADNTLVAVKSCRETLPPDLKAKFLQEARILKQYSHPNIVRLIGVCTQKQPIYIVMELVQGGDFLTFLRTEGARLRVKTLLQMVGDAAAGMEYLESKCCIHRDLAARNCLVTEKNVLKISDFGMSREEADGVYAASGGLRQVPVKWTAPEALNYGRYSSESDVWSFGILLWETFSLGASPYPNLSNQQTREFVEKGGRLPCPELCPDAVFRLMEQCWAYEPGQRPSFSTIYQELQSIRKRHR

FGFR1 = FGFR1 (UniProt P11362); assay: as above
Sequence of FGFR1 (P11362 whole entry, looked up): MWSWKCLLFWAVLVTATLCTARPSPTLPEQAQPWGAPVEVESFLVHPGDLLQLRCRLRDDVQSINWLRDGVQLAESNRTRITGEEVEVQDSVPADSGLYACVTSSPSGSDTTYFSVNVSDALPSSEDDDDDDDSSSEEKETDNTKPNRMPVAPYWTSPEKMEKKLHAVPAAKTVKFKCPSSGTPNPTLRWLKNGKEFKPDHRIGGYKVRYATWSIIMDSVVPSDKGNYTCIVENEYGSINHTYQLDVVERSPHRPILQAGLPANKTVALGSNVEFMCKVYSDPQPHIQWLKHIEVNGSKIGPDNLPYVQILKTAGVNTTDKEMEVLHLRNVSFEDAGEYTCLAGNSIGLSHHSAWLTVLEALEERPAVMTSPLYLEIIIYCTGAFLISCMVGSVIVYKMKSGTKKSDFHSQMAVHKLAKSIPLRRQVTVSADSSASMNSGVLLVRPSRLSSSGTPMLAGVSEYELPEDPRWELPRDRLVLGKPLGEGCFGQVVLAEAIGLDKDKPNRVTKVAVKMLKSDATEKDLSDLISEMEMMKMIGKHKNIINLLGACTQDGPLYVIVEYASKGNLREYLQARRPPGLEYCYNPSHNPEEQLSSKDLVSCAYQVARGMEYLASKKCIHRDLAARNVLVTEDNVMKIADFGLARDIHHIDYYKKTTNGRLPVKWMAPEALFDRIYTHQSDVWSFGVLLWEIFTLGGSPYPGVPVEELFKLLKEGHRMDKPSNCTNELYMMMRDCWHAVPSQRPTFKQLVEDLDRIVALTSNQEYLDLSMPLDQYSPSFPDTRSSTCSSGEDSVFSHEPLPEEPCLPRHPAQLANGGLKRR

EPHB1 = EPHB1 (UniProt P54762); assay: as above
c-Abl (mouse) = assay: as above
AncSZ = assay: as above
SHP2-C SH2 = assay: SH2 binding enrichment of the phosphorylated peptide, bacterial display (enrichment ratio); higher = better substrate or ligand; peptides without Tyr show the background
Grb2 SH2 = Grb2 SH2 (UniProt P62993); assay: as above
c-Src SH2 = assay: as above
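Throughout, for SH2 binding enrichment of the phosphorylated peptide, bacterial display: peptide library displayed on the E. coli surface as eCPX fusions, selected cells deep-sequenced, score is each peptide's frequency after selection divided by its frequency in the input.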
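Throughout, for phosphorylation enrichment, bacterial display: 11-residue human phosphosite peptides and single-mutation variants displayed on the E. coli surface, counted by deep sequencing, each peptide's frequency after selection divided by its frequency in the unselected input library; frequency after pTyr selection over input frequency; kinase dosed for 20-30% of maximal phosphorylation in three min.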

Sequence of Hck (P08631 whole entry, looked up): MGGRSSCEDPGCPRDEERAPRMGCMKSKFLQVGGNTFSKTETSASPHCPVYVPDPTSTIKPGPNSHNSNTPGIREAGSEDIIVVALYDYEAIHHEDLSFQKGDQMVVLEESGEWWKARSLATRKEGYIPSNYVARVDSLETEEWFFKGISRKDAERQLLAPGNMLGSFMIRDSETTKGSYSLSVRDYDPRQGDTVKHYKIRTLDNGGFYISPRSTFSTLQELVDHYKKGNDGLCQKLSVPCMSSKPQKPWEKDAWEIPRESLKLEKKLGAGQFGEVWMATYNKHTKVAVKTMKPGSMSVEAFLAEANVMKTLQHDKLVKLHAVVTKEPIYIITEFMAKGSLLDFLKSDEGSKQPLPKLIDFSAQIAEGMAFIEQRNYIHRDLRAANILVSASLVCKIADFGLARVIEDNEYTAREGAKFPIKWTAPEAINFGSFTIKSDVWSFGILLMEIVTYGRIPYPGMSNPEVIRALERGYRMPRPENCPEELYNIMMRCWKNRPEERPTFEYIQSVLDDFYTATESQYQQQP
Sequence of MERTK (Q12866 whole entry, looked up): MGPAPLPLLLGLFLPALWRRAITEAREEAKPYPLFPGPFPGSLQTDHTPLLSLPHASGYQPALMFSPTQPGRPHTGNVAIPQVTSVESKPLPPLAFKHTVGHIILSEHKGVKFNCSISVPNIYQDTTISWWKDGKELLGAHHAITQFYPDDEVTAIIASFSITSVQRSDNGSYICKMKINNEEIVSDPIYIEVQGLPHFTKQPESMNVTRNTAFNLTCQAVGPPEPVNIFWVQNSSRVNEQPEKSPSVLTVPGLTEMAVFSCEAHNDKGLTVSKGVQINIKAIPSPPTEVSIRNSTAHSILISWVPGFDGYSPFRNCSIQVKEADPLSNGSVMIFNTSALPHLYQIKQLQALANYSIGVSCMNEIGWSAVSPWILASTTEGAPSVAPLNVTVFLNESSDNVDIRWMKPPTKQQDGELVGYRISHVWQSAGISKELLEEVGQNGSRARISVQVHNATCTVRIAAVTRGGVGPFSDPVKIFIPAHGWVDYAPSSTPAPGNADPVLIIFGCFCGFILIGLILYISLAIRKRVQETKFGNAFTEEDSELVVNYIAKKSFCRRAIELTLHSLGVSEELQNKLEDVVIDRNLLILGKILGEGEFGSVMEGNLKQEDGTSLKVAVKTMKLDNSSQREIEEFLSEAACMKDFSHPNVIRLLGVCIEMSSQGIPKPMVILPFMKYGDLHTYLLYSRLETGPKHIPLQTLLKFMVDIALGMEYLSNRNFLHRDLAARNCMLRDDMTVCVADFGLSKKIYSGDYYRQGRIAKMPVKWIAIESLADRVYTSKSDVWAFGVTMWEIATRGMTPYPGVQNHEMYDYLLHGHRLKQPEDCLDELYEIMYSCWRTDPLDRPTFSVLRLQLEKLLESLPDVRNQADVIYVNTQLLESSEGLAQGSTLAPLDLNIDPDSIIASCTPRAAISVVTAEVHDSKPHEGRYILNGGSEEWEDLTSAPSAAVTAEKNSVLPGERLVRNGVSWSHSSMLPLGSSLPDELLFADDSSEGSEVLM
Sequence of EPHB2 (P29323 whole entry, looked up): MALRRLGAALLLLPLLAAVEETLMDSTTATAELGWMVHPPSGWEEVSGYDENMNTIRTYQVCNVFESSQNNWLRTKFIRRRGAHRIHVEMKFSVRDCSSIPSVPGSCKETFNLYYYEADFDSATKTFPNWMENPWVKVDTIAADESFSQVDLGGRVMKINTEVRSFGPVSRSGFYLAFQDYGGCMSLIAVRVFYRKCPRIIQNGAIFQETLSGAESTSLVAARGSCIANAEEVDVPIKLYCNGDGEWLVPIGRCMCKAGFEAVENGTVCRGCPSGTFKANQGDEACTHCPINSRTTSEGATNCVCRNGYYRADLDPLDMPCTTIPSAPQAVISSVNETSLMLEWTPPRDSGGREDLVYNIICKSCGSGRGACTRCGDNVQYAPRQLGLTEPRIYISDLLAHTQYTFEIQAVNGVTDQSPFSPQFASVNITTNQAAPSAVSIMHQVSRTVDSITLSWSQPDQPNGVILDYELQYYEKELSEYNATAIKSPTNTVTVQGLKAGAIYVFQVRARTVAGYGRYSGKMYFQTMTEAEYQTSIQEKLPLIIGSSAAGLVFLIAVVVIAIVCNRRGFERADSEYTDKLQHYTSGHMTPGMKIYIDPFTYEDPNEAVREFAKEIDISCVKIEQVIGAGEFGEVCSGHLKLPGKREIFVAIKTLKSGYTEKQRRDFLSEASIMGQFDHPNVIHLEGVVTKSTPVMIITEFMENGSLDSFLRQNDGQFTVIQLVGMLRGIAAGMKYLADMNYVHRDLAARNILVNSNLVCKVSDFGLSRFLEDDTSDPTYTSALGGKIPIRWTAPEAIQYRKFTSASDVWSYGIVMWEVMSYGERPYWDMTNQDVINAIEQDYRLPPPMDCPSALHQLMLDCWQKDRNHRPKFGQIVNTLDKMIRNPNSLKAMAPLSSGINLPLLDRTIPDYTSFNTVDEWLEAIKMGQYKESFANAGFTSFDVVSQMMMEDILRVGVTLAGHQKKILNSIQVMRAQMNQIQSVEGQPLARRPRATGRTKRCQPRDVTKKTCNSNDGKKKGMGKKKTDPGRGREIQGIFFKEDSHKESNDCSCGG
Sequence of FGFR3 (P22607 whole entry, looked up): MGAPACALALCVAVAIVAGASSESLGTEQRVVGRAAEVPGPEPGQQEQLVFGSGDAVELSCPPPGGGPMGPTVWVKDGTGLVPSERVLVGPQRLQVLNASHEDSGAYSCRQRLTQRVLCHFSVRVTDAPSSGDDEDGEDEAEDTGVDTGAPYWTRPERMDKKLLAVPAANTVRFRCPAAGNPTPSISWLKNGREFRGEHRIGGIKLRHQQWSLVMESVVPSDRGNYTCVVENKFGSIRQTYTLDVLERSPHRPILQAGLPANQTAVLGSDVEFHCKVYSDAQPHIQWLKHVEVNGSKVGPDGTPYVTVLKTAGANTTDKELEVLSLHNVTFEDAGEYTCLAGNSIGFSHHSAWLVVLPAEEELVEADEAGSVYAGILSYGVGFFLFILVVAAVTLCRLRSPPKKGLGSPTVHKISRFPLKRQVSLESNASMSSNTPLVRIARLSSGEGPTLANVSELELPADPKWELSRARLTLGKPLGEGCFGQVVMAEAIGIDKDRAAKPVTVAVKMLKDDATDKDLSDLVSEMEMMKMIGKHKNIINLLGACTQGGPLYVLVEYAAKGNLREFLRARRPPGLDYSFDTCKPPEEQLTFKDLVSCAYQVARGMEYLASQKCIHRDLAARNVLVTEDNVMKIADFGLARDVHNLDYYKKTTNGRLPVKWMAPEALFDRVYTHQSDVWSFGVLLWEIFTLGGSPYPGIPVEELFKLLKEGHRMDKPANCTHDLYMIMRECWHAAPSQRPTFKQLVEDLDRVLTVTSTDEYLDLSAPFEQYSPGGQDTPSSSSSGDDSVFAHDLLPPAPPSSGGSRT

Row | SH2 binding enrichment (SHP2-C SH2) | SH2 binding enrichment (Grb2 SH2) | SH2 binding enrichment (c-Src SH2) | Sequence | phosphorylation enrichment (EPHB2) | phosphorylation enrichment (Fer (mouse)) | phosphorylation enrichment (Fyn) | phosphorylation enrichment (Jak2) | phosphorylation enrichment (FGFR3) | phosphorylation enrichment (MERTK) | phosphorylation enrichment (Hck) | phosphorylation enrichment (c-Src) | phosphorylation enrichment (Fes) | phosphorylation enrichment (FGFR1) | phosphorylation enrichment (EPHB1) | phosphorylation enrichment (c-Abl (mouse)) | phosphorylation enrichment (AncSZ)
1 | 0.962 | 0.96 | 0.969 | HEKRAYICAHP [ACAD9_Y611_L606H] | 0.434 | 0.593 | 0.447 | 1.3 | 0.548 | 0.439 | 0.49 | 0.448 | 0.77 | 0.543 | 0.454 | 0.59 | 0.742
2 | 0.693 | 1.07 | 0.664 | HEPKGYNANFC [TGFB2_Y341] | 0.719 | 0.581 | 0.558 | 0.737 | 0.596 | 0.559 | 0.553 | 0.595 | 0.92 | 0.647 | 0.656 | 0.847 | 0.808
3 | 1.14 | 1.67 | 1.14 | HFPFQYHRQLF [F12_Y53_YF] | 0.585 | 0.538 | 0.466 | 0.669 | 0.694 | 0.507 | 0.52 | 0.546 | 0.78 | 0.555 | 0.618 | 1.44 | 0.924
4 | 0.551 | 0.99 | 0.565 | HGDDDYDDPEL [CLNK_Y69_S65G] | 0.753 | 0.717 | 0.69 | 1.39 | 1.02 | 0.667 | 0.743 | 0.477 | 2 | 0.91 | 0.756 | 0.745 | 1.91
5 | 0.722 | 1.36 | 0.747 | HIAKVYRRDNP [HARS1_Y156] | 0.463 | 0.507 | 0.775 | 0.659 | 0.772 | 0.734 | 0.592 | 1.02 | 0.989 | 0.451 | 0.36 | 1.24 | 0.982
6 | 1.12 | 1.56 | 0.838 | HITQVYGFFDE [PPP2CA_Y127_Q122H_YF] | 1.11 | 0.823 | 15.7 | 1.95 | 1.16 | 2.8 | 7.13 | 12.7 | 2.38 | 1.32 | 1.09 | 1.69 | 2.03
7 | 0.448 | 0.808 | 0.563 | HLDRSYSFSFS [PEAR1_Y890_R885H_YF] | 0.658 | 0.999 | 0.561 | 1.78 | 0.897 | 0.964 | 0.726 | 1.12 | 2.08 | 0.841 | 0.638 | 1.17 | 1.75
8 | 0.695 | 0.877 | 0.491 | HLWRIYFDITD [MMP27_Y307_YF] | 0.771 | 0.531 | 0.532 | 1.52 | 1.19 | 0.366 | 0.739 | 0.462 | 1.81 | 0.973 | 1.15 | 1.27 | 1.39
9 | 0.602 | 1.02 | 0.5 | HNLDFYKKTTN [FGFR3_Y648_YF] | 2.13 | 2.46 | 0.916 | 5.47 | 1.68 | 1.95 | 1.15 | 2.23 | 3.91 | 1.28 | 1.76 | 3.49 | 3.51
10 | 0.794 | 0.849 | 0.431 | HNVPIYEGFAL [ACTA1_Y168_YF] | 28.1 | 22.7 | 15.1 | 0.894 | 0.785 | 12.4 | 14.1 | 10.6 | 7.74 | 0.649 | 22.5 | 23.5 | 1.59
11 | 0.806 | 1.39 | 18.1 | HPFHVYSQPGM [BAG3_Y114_P115S] | 0.945 | 0.719 | 1.24 | 0.984 | 0.908 | 0.804 | 1.74 | 0.937 | 1.39 | 0.753 | 0.649 | 0.847 | 1.78
12 | 0.77 | 0.97 | 0.662 | HRFAAYFQQGD [GPI_Y351] | 0.759 | 0.496 | 0.633 | 1.59 | 0.897 | 0.643 | 0.501 | 0.609 | 1.79 | 0.962 | 0.88 | 0.979 | 1.17
13 | 1.11 | 1.24 | 0.695 | HRGYLYLAIEY [TEK_Y899] | 0.485 | 0.432 | 0.485 | 1.03 | 0.602 | 0.486 | 0.466 | 0.375 | 1.22 | 0.521 | 0.558 | 1.24 | 1.23
14 | 0.702 | 0.865 | 0.425 | HYVYYYSYLLK [PTEN_Y178_R173H] | 1.37 | 0.888 | 1.29 | 2.42 | 5.92 | 5.74 | 3.19 | 3.08 | 2.12 | 6.85 | 2.74 | 2.31 | 2.09
15 | 0.981 | 0.805 | 0.59 | IAINKYEVSLI [MYO7A_Y2136_G2137E] | 0.562 | 0.486 | 0.514 | 0.851 | 0.635 | 0.371 | 0.493 | 0.451 | 0.99 | 0.445 | 0.505 | 0.598 | 0.89
16 | 0.861 | 0.913 | 0.675 | ICANKYMVESC [RPL10_Y75_K78E] | 0.502 | 0.455 | 0.47 | 0.982 | 0.659 | 0.432 | 0.574 | 0.53 | 1.14 | 0.596 | 0.482 | 0.657 | 0.982
17 | 0.534 | 0.71 | 0.499 | IDAICYYRMEN [NPHS2_Y194] | 0.721 | 0.642 | 0.66 | 3.15 | 3.18 | 0.844 | 0.8 | 1.71 | 1.49 | 3.09 | 0.786 | 0.927 | 1.99

Row | SH2 binding enrichment (SHP2-C SH2) | SH2 binding enrichment (Grb2 SH2) | SH2 binding enrichment (c-Src SH2) | Sequence | phosphorylation enrichment (EPHB2) | phosphorylation enrichment (Fer (mouse)) | phosphorylation enrichment (Fyn) | phosphorylation enrichment (Jak2) | phosphorylation enrichment (FGFR3) | phosphorylation enrichment (MERTK) | phosphorylation enrichment (Hck) | phosphorylation enrichment (c-Src) | phosphorylation enrichment (Fes) | phosphorylation enrichment (FGFR1) | phosphorylation enrichment (EPHB1) | phosphorylation enrichment (c-Abl (mouse)) | phosphorylation enrichment (AncSZ)
18 | 0.709 | 1.07 | 0.623 | IEDPYYGNDSD [ACP1_Y133] | 0.809 | 0.548 | 0.81 | 1.35 | 1.09 | 0.45 | 0.759 | 1.6 | 1.39 | 0.807 | 0.638 | 0.83 | 1.5
19 | 0.64 | 0.759 | 1.12 | IEENGYNTYAS [FGF10_Y161] | 0.593 | 0.49 | 0.606 | 0.802 | 0.674 | 0.422 | 0.645 | 0.6 | 1.12 | 0.562 | 0.534 | 0.64 | 1.02
20 | 0.521 | 0.811 | 0.533 | IENKLYGMSDP [RET_Y1062] | 0.653 | 0.666 | 0.613 | 0.617 | 0.689 | 0.546 | 0.732 | 0.698 | 0.988 | 0.585 | 0.506 | 0.707 | 0.941
21 | 0.894 | 1.18 | 0.862 | IFHLSYLHNCE [PDE6B_Y227_YF] | 0.566 | 0.562 | 0.546 | 0.956 | 0.856 | 0.436 | 0.512 | 0.431 | 1.26 | 0.494 | 0.589 | 0.782 | 0.985
22 | 1.22 | 0.941 | 0.996 | IFLGAYDRFLP [SLC22A5_Y486_V481I_YF] | 1.41 | 1.1 | 2.45 | 0.896 | 0.608 | 3.84 | 3.39 | 3.69 | 1 | 0.427 | 0.84 | 0.932 | 1.06
23 | 0.89 | 0.874 | 0.589 | IGEGTYRQVYK [CDK13_Y716_G717R] | 0.465 | 0.449 | 0.368 | 0.655 | 0.391 | 0.319 | 0.411 | 0.521 | 0.546 | 0.42 | 0.289 | 0.492 | 0.492
24 | 0.878 | 0.962 | 0.62 | IGRWVYPLTPE [EIF2B5_Y319_R315G] | 0.58 | 0.461 | 0.49 | 0.874 | 0.646 | 0.551 | 0.509 | 0.502 | 1.02 | 0.564 | 0.563 | 0.717 | 1.33
25 | 0.492 | 0.88 | 0.837 | IIEDPYYGNDS [ACP1_Y132] | 0.623 | 0.632 | 0.958 | 1.33 | 0.869 | 0.522 | 0.918 | 2.73 | 1.22 | 0.851 | 0.561 | 0.849 | 1.46
26 | 0.958 | 0.588 | 0.588 | IINENYDFLKV [NUP98_Y1664_G1669V_YF] | 0.92 | 2.45 | 0.512 | 0.97 | 0.779 | 0.838 | 2.17 | 0.655 | 1.01 | 0.862 | 0.794 | 0.668 | 1.05
27 | 0.568 | 0.768 | 0.34 | IIRRLYLKWHP [SACS_Y4333] | 0.543 | 0.453 | 0.535 | 0.819 | 0.596 | 0.612 | 0.497 | 0.571 | 0.904 | 0.474 | 0.508 | 0.721 | 1.04
28 | 0.671 | 0.889 | 0.84 | ILGRYYERGSI [PAX5_Y73_T75R] | 0.531 | 0.474 | 0.498 | 0.563 | 0.552 | 0.408 | 0.495 | 0.401 | 0.726 | 0.466 | 0.493 | 0.519 | 0.449
29 | 1.02 | 0.782 | 2.39 | ILGRYYETSSI [PAX2_Y73_G76S] | 0.476 | 0.629 | 0.547 | 0.632 | 0.802 | 0.594 | 0.524 | 0.466 | 0.705 | 0.86 | 0.527 | 0.55 | 0.724
30 | 0.847 | 0.814 | 0.541 | ILKPDYQPLAI [HYDIN_Y1072] | 0.403 | 0.379 | 0.415 | 0.556 | 0.533 | 0.425 | 0.484 | 0.376 | 0.65 | 0.376 | 0.489 | 0.62 | 0.613
31 | 0.803 | 0.841 | 1.11 | IPGRFYETGSI [PAX2_Y73_L69P_YF] | 0.858 | 0.357 | 0.492 | 0.662 | 0.614 | 0.415 | 0.517 | 0.549 | 0.723 | 0.635 | 0.441 | 0.552 | 0.733
32 | 0.543 | 0.83 | 1.98 | IQRSLYDRPAS [PDGFRA_Y762] | 0.479 | 0.988 | 0.613 | 0.577 | 0.469 | 0.689 | 1.59 | 0.458 | 0.643 | 0.489 | 0.488 | 0.541 | 0.699
33 | 0.762 | 0.748 | 0.438 | IRDLKYTIENP [SND1_Y178] | 0.522 | 0.541 | 0.456 | 1.19 | 0.807 | 0.407 | 0.507 | 0.47 | 1.38 | 0.776 | 0.521 | 0.785 | 1.21

From the supplement of paper PMC10065799, “High-throughput profiling of sequence recognition by tyrosine kinases and SH2 domains using bacterial peptide display” (eLife, 2023)
